What was measured:
cynomolgus monkey IL-2 = target: T1, cynomolgus monkey IL-2 (cynomolgus monkey, UniProt Q29615 21-154); experiment: SPR, multi-cycle, antibody captured, cynomolgus IL-2 analyte
T1 construct: also called cIL-2
Source text: (§1) The SPR analysis was done on Biacore […] (GE healthcare, USA) on CM5 chips (cat:br10005-30, GE healthcare, USA). The chip was crosslinked with primary capture Ab against human IgG (Cat: br-1008-39, GE healthcare, USA) or primary capture antibody against mouse IgG (Cat: BR-1008-38, GE healthcare, USA) to a target of 8000RU. After cross-linking of the primary Ab, the mouse and human tested antibodies were immobilized on the primary Ab to a target of approximately additional 500RU. […] At the end of each cycle the analyte and tested antibody were stripped from the chip using 3M MgCl₂ and new tested Ab was loaded on the chip as described above. When indicated, instead of stripping the antibodies, kinetics was determined by injecting series of analyte concentrations in one cycle by the Single-cycle kinetics method. Binding kinetics were determined by the 1:1 Binding model using the Biacore T200 evaluation software.

Human IL-2 [1] = target: T2, Human IL-2 (human, UniProt P60568 21-153); experiment: SPR (Biacore T200), AU-007 captured on a CM5 chip, h-IL2 as analyte at 0.0625-10 nM, multi-cycle, 1:1 binding model
T2 construct: Soluble analyte in the SPR experiments; also called hIL-2; recombinant human IL-2
Procedure: Affinity and epitope binding site was assessed using Surface Plasmon Resonance (SPR). […] Subsequently, soluble hCD25 was injected followed by the injection of soluble hCD122. […] Diagrams represent SPR sensorgram traces of complex formation of IL-2R/Cytokine.
The chip was crosslinked with a human antibody capture kit (BR100839, GE Healthcare, USA) according to the manufacturer's protocol to target 3000-4000 RU. […] Between each cycle, all channels underwent regeneration using 3M MgCl₂. Binding kinetics were determined by the 1:1 Binding model using the Biacore […] evaluation software, version 3.1.

Human IL-2 [2] = target: T2, Human IL-2; experiment: cell-based or functional assay
Mouse IL-2 = target: T3, Mouse IL-2 (mouse, UniProt P04351 21-169); experiment: no assay described; stated in the methods of the LL/2 tumor model
T3 construct: Soluble analyte in SPR; also called mIL-2
T3 sequence (looked up): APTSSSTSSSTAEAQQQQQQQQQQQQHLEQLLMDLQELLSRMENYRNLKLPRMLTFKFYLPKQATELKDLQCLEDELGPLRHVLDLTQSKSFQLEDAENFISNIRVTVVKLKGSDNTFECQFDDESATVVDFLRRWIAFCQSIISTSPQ

Human IL-2 [3] = target: T2, Human IL-2; experiment: SPR, multi-cycle, antibody captured, hIL-2 analyte
Source text: as §1

T1 sequence (Q29615 21-154 limits assumed): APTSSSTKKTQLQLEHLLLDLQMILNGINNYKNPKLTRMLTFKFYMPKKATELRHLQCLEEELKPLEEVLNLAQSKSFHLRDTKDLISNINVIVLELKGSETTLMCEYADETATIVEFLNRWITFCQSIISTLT
T2 sequence (P60568 21-153 limits assumed): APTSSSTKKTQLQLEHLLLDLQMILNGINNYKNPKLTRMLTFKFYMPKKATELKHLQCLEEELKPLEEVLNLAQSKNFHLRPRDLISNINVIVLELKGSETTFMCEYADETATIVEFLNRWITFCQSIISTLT

Kd (cynomolgus monkey IL-2): 0.0117 nM
koff (cynomolgus monkey IL-2): 0.000584 s⁻¹
kon (cynomolgus monkey IL-2): 4.98e+07 M⁻¹ s⁻¹
Kd (Human IL-2 [1]): 0.0108 nM
koff (Human IL-2 [1]): 0.000487 s⁻¹
kon (Human IL-2 [1]): 4.5e+07 M⁻¹ s⁻¹
IC50 (read off the curve) (%pSTAT5 in CD4+ Tregs of hPBMC stimulated with hIL-2) (Human IL-2 [2]): ~1000 pM
binding result (Mouse IL-2): no binding
Kd (Human IL-2 [3]): 0.0108 nM
koff (Human IL-2 [3]): 0.000487 s⁻¹
kon (Human IL-2 [3]): 4.5e+07 M⁻¹ s⁻¹
B1: BDG17.069 (AU-007) (antibody, human IgG1, kappa, L234A L235A, V domains shown)
VH: QVQLVQSGAEVKKPGSSVKVSCKASGYSITDDLIHWVRQAPGQGLEWMGWIDPEDGETNYAQKFQGRVTLTADTSTSTAYMELSSLRSEDTAVYYCARSLDSTWIYPFAYWGQGTLVTVSS
VL: DIVMTQSPDSLAVSLGERATINCKSSQSLLRRGNQKNHLAWYQQKPGQPPKLLIYDASTGQSGVPDRFSGSGSGTDFTLTISSLQAEDVAVYYCLQSYITPPTFGAGTKVEIKR
notes: Human IgG1-LALA

From patent US20240287169A1 (AULOS BIOSCIENCE, published 2024)
